Positions count from the first letter of the chain named.
How the values were obtained:
GST-Pti5 [1] = target: T1, GST-Pti5 (Solanum lycopersicum, UniProt O04681 O04681:1-161); assay: EMSA; 25 mM Hepes pH 7.5, 40 mM KCl, 0.1 mM EDTA, 10% glycerol, 1 mM DTT, poly(dA-dT), room temp; WT sequence printed with stray 'to' in the middle; settings: tags: N-terminal GST (pGEX, E. coli PR745; cDNA nt 82-782); label: 32P end label
Description: (§1) The wild type gln2 PR-box 2x ([…] to […]) and mutated PR-box 2x ([…]) were end-labeled by 32P as described by Ausubel, F. M., Brent, R., Kingston, R. E., Moore, D. D., Seidman, J. G., Smith, J. A., and Struhl, K. (1994). Current Protocols in Molecular Biology. (New York: Greene Publish Associates/John Wiley and Sons). Four fmol of probe was mixed with each of the purified GST-fusion proteins in a buffer containing 2 μg poly(dA-dT) (dA-dT), 25 mM Hepes (PH7.5), 40 mM KCl, 0.1 mM EDTA, 10% glycerol, and 1 mM DTT, incubated at room temperature for 15 minutes, and electrophoresed on a 4% polyacrylamide gel in 0.25×TBE buffer. Ohme-Takagi, M. and Shinshi, H. (1995). Ethylene-inducible DNA-binding proteins that interact with an ethylene-responsive element. Plant Cell 7, 173-182. The gel was subsequently dried and exposed to x-ray film. […] In contrast to GST-Pti5 and GST-Pti6, neither GST-Ptil nor GST itself bound to the PR-box.

GST-Pti5 [2] = target: T1, GST-Pti5; assay: EMSA; no binding detected; settings: tags: N-terminal GST (pGEX, E. coli PR745; cDNA nt 82-782); label: 32P end label
Description: as §1

T1 sequence (O04681 whole entry, the tested form may be a part, one chain of several): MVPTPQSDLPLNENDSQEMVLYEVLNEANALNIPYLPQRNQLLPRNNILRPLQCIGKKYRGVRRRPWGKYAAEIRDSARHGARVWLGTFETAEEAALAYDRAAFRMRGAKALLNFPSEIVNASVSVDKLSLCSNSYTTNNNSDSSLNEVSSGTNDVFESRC

B1: wild type gln2 PR-box 2x (dsDNA)
DNA 1: CATAAGAGCCGCCACTAAAATAAGACCGATCAAATAAGAGCCGCCAT
DNA 2: ATGGCGGCTCTTATTTGATCGGTCTTATTTTAGTGGCGGCTCTTATG
Q: Does B1 bind (GST-Pti5 [1])?
A: Result: binds

B2: mutated PR-box 2x (dsDNA)
DNA 1: B1 DNA 1 with G8T, G11T, G40T, G43T
DNA 2: B1 DNA 2 with C5A, C8A, C37A, C40A
Q: Does B2 bind (GST-Pti5 [2])?
A: Result: no binding
